Measured values: PMC11100747 (bioRxiv, 2024)

T1: Ric1 (S. cerevisiae, UniProt P40395 1-1056)
T1 sequence: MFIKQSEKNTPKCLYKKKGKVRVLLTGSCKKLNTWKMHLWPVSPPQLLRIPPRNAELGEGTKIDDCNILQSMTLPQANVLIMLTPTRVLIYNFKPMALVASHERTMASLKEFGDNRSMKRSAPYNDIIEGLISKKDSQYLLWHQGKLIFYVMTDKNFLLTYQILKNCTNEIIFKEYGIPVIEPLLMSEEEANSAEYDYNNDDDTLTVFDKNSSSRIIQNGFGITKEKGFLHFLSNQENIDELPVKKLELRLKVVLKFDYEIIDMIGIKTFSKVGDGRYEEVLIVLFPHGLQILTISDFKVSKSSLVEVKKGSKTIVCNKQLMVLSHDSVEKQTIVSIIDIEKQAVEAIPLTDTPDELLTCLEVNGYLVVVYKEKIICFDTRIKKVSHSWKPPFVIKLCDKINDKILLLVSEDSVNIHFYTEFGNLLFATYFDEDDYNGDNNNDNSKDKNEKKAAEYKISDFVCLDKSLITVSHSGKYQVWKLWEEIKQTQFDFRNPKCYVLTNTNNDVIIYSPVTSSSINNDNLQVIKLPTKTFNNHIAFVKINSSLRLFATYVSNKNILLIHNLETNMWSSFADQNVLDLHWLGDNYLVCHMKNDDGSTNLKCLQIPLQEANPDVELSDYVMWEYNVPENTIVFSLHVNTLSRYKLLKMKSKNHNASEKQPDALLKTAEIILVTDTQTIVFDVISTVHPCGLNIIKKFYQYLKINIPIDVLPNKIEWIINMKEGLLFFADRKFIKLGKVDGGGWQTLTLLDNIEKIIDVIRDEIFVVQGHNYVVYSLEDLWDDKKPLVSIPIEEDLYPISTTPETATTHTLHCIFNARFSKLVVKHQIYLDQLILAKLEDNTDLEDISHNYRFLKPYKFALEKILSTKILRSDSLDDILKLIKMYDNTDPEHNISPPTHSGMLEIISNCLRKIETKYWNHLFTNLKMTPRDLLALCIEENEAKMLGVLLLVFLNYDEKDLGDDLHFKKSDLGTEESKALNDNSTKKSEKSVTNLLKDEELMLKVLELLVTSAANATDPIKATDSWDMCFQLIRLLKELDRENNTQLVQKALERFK

T2: Gdi1 (yeast, UniProt P39958 1-451)
T2 sequence: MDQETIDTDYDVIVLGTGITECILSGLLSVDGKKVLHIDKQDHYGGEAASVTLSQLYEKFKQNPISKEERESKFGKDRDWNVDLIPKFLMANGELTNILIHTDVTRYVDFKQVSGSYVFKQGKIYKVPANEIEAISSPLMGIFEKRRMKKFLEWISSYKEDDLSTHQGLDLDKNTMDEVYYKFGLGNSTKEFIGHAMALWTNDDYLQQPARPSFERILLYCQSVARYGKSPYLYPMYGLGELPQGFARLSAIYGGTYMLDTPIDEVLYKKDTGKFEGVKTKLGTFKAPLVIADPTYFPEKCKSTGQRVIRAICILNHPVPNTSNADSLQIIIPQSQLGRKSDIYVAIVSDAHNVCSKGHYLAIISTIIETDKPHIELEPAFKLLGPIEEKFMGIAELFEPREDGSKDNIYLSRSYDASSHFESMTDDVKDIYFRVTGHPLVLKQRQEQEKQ

B1: Rgp1 (natural protein)
chain: MRAHRIDTFLIRENIKLEIIHESNSYFGGEHISIAFRFKHLGSQHELFNYKEKLLTVDKAVEEKLEQQAKVQDDGEGTMENQTWSLKSLLGAFKRTGEPEESVDVDNMKMLNESKMLREKIQKQMYFHQPVTLISGYVQISGVFQYDSEVISESKFKQDEVKMVGLDIVPGHTTNSVLALEDGEHFKGKRNLTNYLNSDYTNVTNGLLFSESGSRGRTGTYNERTLMISNDTSIKTLPLLLIPQTLLFSEISLEPGEVRTFYFKSTKLPKDICPSYSSSKVASINYTLEVGADVLSDDNIEKFSNRVPITIAPYISSNAEQYTSRLDKPAIILKTGNIKELKPRLFTRKVSTASAVSFGRRKSSIIDIDSPLEDNEFVKRVKKNFIELVESNQNVSRDIDELIDLQMGVQFGKDEDSSDPEPNDSHFSNEMVTSAESSLRSDAVTKRRKSYSVRDNISNLEQKMWNDCSLVKSDENSNLLPQLINLQNAYQINRNNETMAKVSLSAPFYKTTDDINLVIELDPITTPLLKVTSLTVSLESFEIINPKYKTEGKGIGSKPKGNSVYEKHFICFDECKSVSVKLLPPRSPTNQITGQFKTDVFQHKWMIGLKFVIIAKTESITLDQFYEDKKGILFHSKENLEGEEFTCYVPIPILCTSEDFMGW
B2: prenylated Rab6-mantGDP (natural protein)
chain: MSRSGKSLTKYKIVFLGEQGVGKTSLITRFMYDTFDDHYQATIGIDFLSKTMYLDDKTIRLQLWDTAGQERFRSLIPSYIRDSRVAIIVYDITKRKSFEYIDKWIEDVKNERGDENVILCIVGNKSDLSDERQISTEEGEKKAKLLGAKIFMETSTKAGYNVKALFKKIAKSLPEFQNSESTPLDSENANSANQNKPGVIDISTAEEQEQSACQC
modifications: C-terminal cysteines prenylated (geranylgeranyl)

How the values were obtained:
[1] = target: T1, Ric1; assay: cryo-EM structure
[2] = target: T2, Gdi1; assay: SEC

Row | Binder | binding result [1] | binding result [2]
1 | B1 | binds | 
2 | B2 |  | binds
